Reference: the supplement of paper PMC10567573

B1: ZNF263 (parent)
chain: VPGTQVGQGGKLWDPSVQSCKEGL

Variants of: B1
Experiment: protein stability index of a GFP-peptide fusion (GPS, HEK-293T) (PSI 1-6); higher = more stable
Details: c terminus: a fixed tail appended
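Also: lentivirally expressed fusions sorted by FACS into six bins by GFP to DsRed ratio, PSI derived from sequencing read proportions per bin multiplied by bin number.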

Variant	protein stability index
VPGTQVGQGGKLWDPSVQCCKEGL [S19C]	3.39
VPGTQVGQGGKLWDPSVQACKEGL [S19A]	4.35
VPGTQVGQGGKLWDPSVQKCKEGL [S19K]	4.25
VPGTQVGQGGKLWDPSVQDCKEGL [S19D]	4.88
VPGTQVGQGGKLWDPSVQECKEGL [S19E]	4.38
VPGTQVGQGGKLWDPSVQLCKEGL [S19L]	4.04
VPGTQVGQGGKLWDPSVQFCKEGL [S19F]	3.98
VPGTQVGQGGKLWDPSVQGCKEGL [S19G]	4.41
VPGTQVGQGGKLWDPSVQICKEGL [S19I]	3.77
VPGTQVGQGGKLWDPSVQHCKEGL [S19H]	4.05
VPGTQVGQGGKLWDDSVQSCKEGL [P15D]	4.29
VPGTQVGQGGKLWDQSVQSCKEGL [P15Q]	4.25
VPGTQVGQGGKLWDYSVQSCKEGL [P15Y]	3.16
VPGTQVGQGGKLWDGSVQSCKEGL [P15G]	4.35
VPGTQVGQGGKLWDHSVQSCKEGL [P15H]	4.01
VPGTQVGQGGKLWDESVQSCKEGL [P15E]	4.94
VPGTQVGQGGKLWDMSVQSCKEGL [P15M]	3.54
VPGTQVGQGGKLWDFSVQSCKEGL [P15F]	2.86
VPGTQVGQGGKLWDRSVQSCKEGL [P15R]	4.16
VPGTQVGQGGKLWDWSVQSCKEGL [P15W]	3.17
VPGTQVGQGGKLWDLSVQSCKEGL [P15L]	4.8
VPGTQVGQGGKLWDKSVQSCKEGL [P15K]	4.23
VPGTQVGQGGKLWDCSVQSCKEGL [P15C]	3.75
VPGTQVGQGGKLWDTSVQSCKEGL [P15T]	4.25

Variant	protein stability index
VPGTQVGQGGKLWDISVQSCKEGL [P15I]	3.3
VPGTQVGQGGKLWDNSVQSCKEGL [P15N]	4.13
VPGTQVGQGGKLWDVSVQSCKEGL [P15V]	3.63
VPGTQVGQGGKLWDASVQSCKEGL [P15A]	4.22
VPGTQVGQGGKLWDSSVQSCKEGL [P15S]	4.03
VPGTQVGQGTKLWDPSVQSCKEGL [G10T]	4.31
VPGTQVGQGWKLWDPSVQSCKEGL [G10W]	2.45
VPGTQVGQGHKLWDPSVQSCKEGL [G10H]	4.02
VPGTQVGQGIKLWDPSVQSCKEGL [G10I]	3.53
VPGTQVGQGCKLWDPSVQSCKEGL [G10C]	3.24
VPGTQVGQGEKLWDPSVQSCKEGL [G10E]	4.01
VPGTQVGQGQKLWDPSVQSCKEGL [G10Q]	4.38
VPGTQVGQGNKLWDPSVQSCKEGL [G10N]	4.19
VPGTQVGQGRKLWDPSVQSCKEGL [G10R]	4.96
VPGTQVGQGLKLWDPSVQSCKEGL [G10L]	3.62
VPGTQVGQGSKLWDPSVQSCKEGL [G10S]	4.48
VPGTQVGQGMKLWDPSVQSCKEGL [G10M]	4.28
VPGTQVGQGYKLWDPSVQSCKEGL [G10Y]	3.55
VPGTQVGQGPKLWDPSVQSCKEGL [G10P]	4.47
VPGTQVGQGFKLWDPSVQSCKEGL [G10F]	2.93
VPGTQVGQGKKLWDPSVQSCKEGL [G10K]	4.5
VPGTQVGQGDKLWDPSVQSCKEGL [G10D]	4.54
VPGTQVGQGAKLWDPSVQSCKEGL [G10A]	4.33
VPGTQVGQGVKLWDPSVQSCKEGL [G10V]	3.71

Variant	protein stability index
VPGTQVGQGGKAWDPSVQSCKEGL [L12A]	3.4
VPGTQVGQGGKDWDPSVQSCKEGL [L12D]	4.89
VPGTQVGQGGKMWDPSVQSCKEGL [L12M]	4.07
VPGTQVGQGGKYWDPSVQSCKEGL [L12Y]	3.79
VPGTQVGQGGKVWDPSVQSCKEGL [L12V]	4.42
VPGTQVGQGGKPWDPSVQSCKEGL [L12P]	5.07
VPGTQVGQGGKIWDPSVQSCKEGL [L12I]	3.65
VPGTQVGQGGKGWDPSVQSCKEGL [L12G]	3.97
VPGTQVGQGGKNWDPSVQSCKEGL [L12N]	4.42
VPGTQVGQGGKKWDPSVQSCKEGL [L12K]	4.37
VPGTQVGQGGKEWDPSVQSCKEGL [L12E]	3.97
VPGTQVGQGGKFWDPSVQSCKEGL [L12F]	4.26
VPGTQVGQGGKTWDPSVQSCKEGL [L12T]	4.34
VPGTQVGQGGKSWDPSVQSCKEGL [L12S]	4.3
VPGTQVGQGGKHWDPSVQSCKEGL [L12H]	4.45
VPGTQVGQGGKQWDPSVQSCKEGL [L12Q]	4.72
VPGTQVGQGGKCWDPSVQSCKEGL [L12C]	3.94
VPGTQVGQGGKRWDPSVQSCKEGL [L12R]	4.36
VPGTQVGQGGKWWDPSVQSCKEGL [L12W]	4.01
VPGTQVGQGGKLWDPEVQSCKEGL [S16E]	4.73
VPGTQVGQGGKLWDPFVQSCKEGL [S16F]	3.12
VPGTQVGQGGKLWDPWVQSCKEGL [S16W]	3.17
VPGTQVGQGGKLWDPTVQSCKEGL [S16T]	4.58
VPGTQVGQGGKLWDPYVQSCKEGL [S16Y]	3.68

Variant	protein stability index
VPGTQVGQGGKLWDPAVQSCKEGL [S16A]	4.88
VPGTQVGQGGKLWDPRVQSCKEGL [S16R]	3.12
VPGTQVGQGGKLWDPQVQSCKEGL [S16Q]	4.38
VPGTQVGQGGKLWDPLVQSCKEGL [S16L]	3.53
VPGTQVGQGGKLWDPGVQSCKEGL [S16G]	4.21
VPGTQVGQGGKLWDPDVQSCKEGL [S16D]	4.93
VPGTQVGQGGKLWDPHVQSCKEGL [S16H]	4.27
VPGTQVGQGGKLWDPPVQSCKEGL [S16P]	4.45
VPGTQVGQGGKLWDPKVQSCKEGL [S16K]	4.11
VPGTQVGQGGKLWDPIVQSCKEGL [S16I]	3.15
VPGTQVGQGGKLWDPMVQSCKEGL [S16M]	3.92
VPGTQVGQGGKLWDPNVQSCKEGL [S16N]	3.89
VPGTQVGQGGKLWDPVVQSCKEGL [S16V]	4.02
VPGTQVGQGGKLWDPCVQSCKEGL [S16C]	4.11
VPGTQVGQWGKLWDPSVQSCKEGL [G9W]	3.33
VPGTQVGQVGKLWDPSVQSCKEGL [G9V]	3.67
VPGTQVGQPGKLWDPSVQSCKEGL [G9P]	3.25
VPGTQVGQQGKLWDPSVQSCKEGL [G9Q]	4.22
VPGTQVGQTGKLWDPSVQSCKEGL [G9T]	4.25
VPGTQVGQRGKLWDPSVQSCKEGL [G9R]	3.67
VPGTQVGQSGKLWDPSVQSCKEGL [G9S]	4.23
VPGTQVGQYGKLWDPSVQSCKEGL [G9Y]	3.59
VPGTQVGQNGKLWDPSVQSCKEGL [G9N]	3.47
VPGTQVGQGGGLWDPSVQSCKEGL [K11G]	4.44

Variant	protein stability index
VPGTQVGQGGTLWDPSVQSCKEGL [K11T]	4.31
VPGTQVGQGGWLWDPSVQSCKEGL [K11W]	3.72
VPGTQVGQGGELWDPSVQSCKEGL [K11E]	4.22
VPGTQVGQGGYLWDPSVQSCKEGL [K11Y]	4.12
VPGTQVGQGGDLWDPSVQSCKEGL [K11D]	4.63
VPGTQVGQGGLLWDPSVQSCKEGL [K11L]	4.13
VPGTQVGQGGVLWDPSVQSCKEGL [K11V]	3.61
VPGTQVGQGGHLWDPSVQSCKEGL [K11H]	4.03
VPGTQVGQGGCLWDPSVQSCKEGL [K11C]	4.57
VPGTQVGQGGALWDPSVQSCKEGL [K11A]	4
VPGTQVGQGGILWDPSVQSCKEGL [K11I]	4.26
VPGTQVGQGGFLWDPSVQSCKEGL [K11F]	3.9
VPGTQVGQGGNLWDPSVQSCKEGL [K11N]	4.54
VPGTQVGQGGMLWDPSVQSCKEGL [K11M]	4.56
VPGTQVGQGGSLWDPSVQSCKEGL [K11S]	4.35
VPGTQVGQGGPLWDPSVQSCKEGL [K11P]	3.65
VPGTQVGQGGQLWDPSVQSCKEGL [K11Q]	4.54
VPGTQVGQGGRLWDPSVQSCKEGL [K11R]	4.46
VPGTQVGQGGKLWDPSVESCKEGL [Q18E]	4.7
VPGTQVGQGGKLWDPSVLSCKEGL [Q18L]	3.97
VPGTQVGQGGKLWDPSVSSCKEGL [Q18S]	3.88
VPGTQVGQGGKLWDPSVNSCKEGL [Q18N]	3.42
VPGTQVGQGGKLWDPSVWSCKEGL [Q18W]	3
VPGTQVGQGGKLWDPSVFSCKEGL [Q18F]	3.2

Variant	protein stability index
VPGTQVGQGGKLWDPSVTSCKEGL [Q18T]	4.47
VPGTQVGQGGKLWDPSVGSCKEGL [Q18G]	4.92
VPGTQVGQGGKLWDPSVKSCKEGL [Q18K]	4.39
VPGTQVGQGGKLWDPSVYSCKEGL [Q18Y]	4.01
VPGTQVGQGGKLWDPSVCSCKEGL [Q18C]	3.63
VPGTQVGQGGKLWDPSVRSCKEGL [Q18R]	3.05
VPGTQVGQGGKLWDPSVDSCKEGL [Q18D]	4.54
VPGTQVGQGGKLWDPSVMSCKEGL [Q18M]	4.38
VPGTQVGQGGKLWDPSVISCKEGL [Q18I]	4.01
VPGTQVGQGGKLWDPSVASCKEGL [Q18A]	3.46
VPGTQVGQGGKLWDPSVVSCKEGL [Q18V]	3.87
VPGTQVGQGGKLWDPSVHSCKEGL [Q18H]	3.89
VPGTQVGQGGKLWDPSVPSCKEGL [Q18P]	4.38
VPGTQVGQGGKLWTPSVQSCKEGL [D14T]	3.79
VPGTQVGQGGKLWCPSVQSCKEGL [D14C]	3.35
VPGTQVGQGGKLWMPSVQSCKEGL [D14M]	3.36
VPGTQVGQGGKLWYPSVQSCKEGL [D14Y]	3.11
VPGTQVGQGGKLWPPSVQSCKEGL [D14P]	3.44
VPGTQVGQGGKLWQPSVQSCKEGL [D14Q]	4.09
VPGTQVGQGGKLWVPSVQSCKEGL [D14V]	3.87
VPGTQVGQGGKLWHPSVQSCKEGL [D14H]	4.08
VPGTQVGQGGKLWNPSVQSCKEGL [D14N]	3.72
VPGTQVGQGGKLWWPSVQSCKEGL [D14W]	3.19
VPGTQVGQGGKLWFPSVQSCKEGL [D14F]	3.07

Variant	protein stability index
VPGTQVGQGGKLWIPSVQSCKEGL [D14I]	3.66
VPGTQVGQGGKLWSPSVQSCKEGL [D14S]	3.99
VPGTQVGQGGKLWKPSVQSCKEGL [D14K]	3.51
VPGTQVGQGGKLWRPSVQSCKEGL [D14R]	3.05
VPGTQVGQGGKLWAPSVQSCKEGL [D14A]	4.14
VPGTQVGQGGKLWEPSVQSCKEGL [D14E]	3.78
VPGTQVGQGGKLWGPSVQSCKEGL [D14G]	4.1
VPGTQVGQGGKLWDPSYQSCKEGL [V17Y]	4.1
VPGTQVGQGGKLWDPSTQSCKEGL [V17T]	3.74
VPGTQVGQGGKLWDPSPQSCKEGL [V17P]	4.24
VPGTQVGQGGKLWDPSRQSCKEGL [V17R]	4.23
VPGTQVGQGGKLWDPSHQSCKEGL [V17H]	4.1
VPGTQVGQGGKLWDPSFQSCKEGL [V17F]	3.38
VPGTQVGQGGKLWDPSKQSCKEGL [V17K]	4.33
VPGTQVGQGGKLWDPSGQSCKEGL [V17G]	3.99
VPGTQVGQGGKLWDPSSQSCKEGL [V17S]	4.92
VPGTQVGQGGKLWDPSCQSCKEGL [V17C]	4.15
VPGTQVGQGGKLWDPSMQSCKEGL [V17M]	4.06
VPGTQVGQGGKLWDPSEQSCKEGL [V17E]	5.16
VPGTQVGQGGKLWDPSDQSCKEGL [V17D]	4.92
VPGTQVGQGGKLWDPSAQSCKEGL [V17A]	4.38
VPGTQVGQGGKLWDPSIQSCKEGL [V17I]	3.89
VPGTQVGQGGKLWDPSNQSCKEGL [V17N]	4.07
VPGTQVGQGGKLWDPSLQSCKEGL [V17L]	4.08

Variant	protein stability index
VPGTQVGQGGKLWDPSQQSCKEGL [V17Q]	3.8
VPGTQVGQGGKLFDPSVQSCKEGL [W13F]	4.59
VPGTQVGQGGKLGDPSVQSCKEGL [W13G]	5.5
VPGTQVGQGGKLIDPSVQSCKEGL [W13I]	4.66
VPGTQVGQGGKLDDPSVQSCKEGL [W13D]	4.4
VPGTQVGQGGKLQDPSVQSCKEGL [W13Q]	4.79
VPGTQVGQGGKLLDPSVQSCKEGL [W13L]	4.8
VPGTQVGQGGKLHDPSVQSCKEGL [W13H]	4.66
VPGTQVGQGGKLRDPSVQSCKEGL [W13R]	4.71
VPGTQVGQGGKLTDPSVQSCKEGL [W13T]	4.79
VPGTQVGQGGKLKDPSVQSCKEGL [W13K]	4.61
VPGTQVGQGGKLMDPSVQSCKEGL [W13M]	4.41
VPGTQVGQGGKLCDPSVQSCKEGL [W13C]	4.76
VPGTQVGQGGKLEDPSVQSCKEGL [W13E]	5.29
VPGTQVGQGGKLSDPSVQSCKEGL [W13S]	4.54
VPGTQVGQGGKLNDPSVQSCKEGL [W13N]	5.12
VPGTQVGQGGKLYDPSVQSCKEGL [W13Y]	4.57
VPGTQVGQGGKLPDPSVQSCKEGL [W13P]	4.72
VPGTQVGQGGKLADPSVQSCKEGL [W13A]	4.8
VPGTQVGQGGKLVDPSVQSCKEGL [W13V]	4.88
